In publication PMC6232189, “Expression optimization of recombinant cholesterol oxidase in Escherichia coli and its purification and characterization” (AMB Express, 2018):

Substrate: CC(C)CCC[C@@H](C)[C@H]1CC[C@H]2[C@@H]3CC=C4C[C@@H](O)CC[C@]4(C)[C@H]3CC[C@]12C
Assay: purified protein
Assay type: biochemical, Streptomyces sp. SA-COO
Settings: 0-1 mM cholesterol, 0.1 M potassium phosphate pH 7, 25 °C

B1: ChOA (cholesterol oxidase from Streptomyces sp. SA-COO) (Streptomyces sp. SA-COO) (protein)
chain: DNGGYVPAVVIGTGYGAAVSALRLGEAGVQTLMLEMGQLWNQPGPDGNIFCGMLNPDKRSSWFKNRTEAPLGSFLWLDVVNRNIDPYAGVLDRVNYDQMSVYVGRGVGGGSLVNGGMAVEPKRSYFEEILPRVDSSEMYDRYFPRANSMLRVNHIDTKWFEDTEWYKFARVSREQAGKAGLGTVFVPNVYDFGYMQREAAGEVPKSALATEVIYGNNHGKQSLDKTYLAAALGTGKVTIQTLHQVKTIRQTKDGGYALTVEQKDTDGKLLATKEISCRYLFLGAGSLGSTELLVRARDTGTLPNLNSEVGAGWGPNGNIMTARANHMWNPTGAHQSSIPALGIDAWDNSDSSVFAEIAPMPAGLETWVSLYLAITKNPQRGTFVYDAATDRAKLNWTRDQNAPAVNAAKALFDRINKANGTIYRYDLFGTQLKAFADDFCYHPLGGCVLGKATDDYGRVAGYKNLYVTDGSLIPGSVGVNPFVTITALAERNVERIIKQDVTAS
With B1 the Km was 13 µM.
